Experimental data taken from IntAct's records for PubMed 15448699.

B1: Protein SIC1 (Saccharomyces cerevisiae), P38634 (parent)
chain: MTPSTPPRSRGTRYLAQPSGNTSSSALMQGQKTPQKPSQNLVPVTPSTTKSFKNAPLLAPPNSNMGMTSPFNGLTSPQRSPFPKSSVKRTLFQFESHDNGTVREEQEPLGRVNRILFPTQQNVDIDAAEEEEEGEVLLPPSRPTSARQLHLSLERDEFDQTHRKKIIKDVPGTPSDKVITFELAKNWNNNSPKNDARSQESEDEEDIIINPVRVGKNPFASDELVTQEIRNERKRAMLRENPDIEDVITYVNKKGEVVEKRRLTDEEKRRFKPKALFQSRDQEH
partner: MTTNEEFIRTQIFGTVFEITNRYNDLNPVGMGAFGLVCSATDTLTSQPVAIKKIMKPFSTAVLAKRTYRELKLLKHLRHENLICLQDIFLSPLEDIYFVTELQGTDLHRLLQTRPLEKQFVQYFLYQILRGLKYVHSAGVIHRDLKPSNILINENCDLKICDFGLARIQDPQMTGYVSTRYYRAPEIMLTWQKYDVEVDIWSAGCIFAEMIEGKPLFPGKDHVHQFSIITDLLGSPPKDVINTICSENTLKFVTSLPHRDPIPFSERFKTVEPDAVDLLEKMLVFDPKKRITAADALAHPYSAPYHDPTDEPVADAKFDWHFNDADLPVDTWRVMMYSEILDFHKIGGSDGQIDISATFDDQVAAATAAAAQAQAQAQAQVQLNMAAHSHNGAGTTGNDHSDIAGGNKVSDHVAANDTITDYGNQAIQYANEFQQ
B2: Protein SIC1 (Saccharomyces cerevisiae), P38634 (parent)
chain: B1 chain
partner: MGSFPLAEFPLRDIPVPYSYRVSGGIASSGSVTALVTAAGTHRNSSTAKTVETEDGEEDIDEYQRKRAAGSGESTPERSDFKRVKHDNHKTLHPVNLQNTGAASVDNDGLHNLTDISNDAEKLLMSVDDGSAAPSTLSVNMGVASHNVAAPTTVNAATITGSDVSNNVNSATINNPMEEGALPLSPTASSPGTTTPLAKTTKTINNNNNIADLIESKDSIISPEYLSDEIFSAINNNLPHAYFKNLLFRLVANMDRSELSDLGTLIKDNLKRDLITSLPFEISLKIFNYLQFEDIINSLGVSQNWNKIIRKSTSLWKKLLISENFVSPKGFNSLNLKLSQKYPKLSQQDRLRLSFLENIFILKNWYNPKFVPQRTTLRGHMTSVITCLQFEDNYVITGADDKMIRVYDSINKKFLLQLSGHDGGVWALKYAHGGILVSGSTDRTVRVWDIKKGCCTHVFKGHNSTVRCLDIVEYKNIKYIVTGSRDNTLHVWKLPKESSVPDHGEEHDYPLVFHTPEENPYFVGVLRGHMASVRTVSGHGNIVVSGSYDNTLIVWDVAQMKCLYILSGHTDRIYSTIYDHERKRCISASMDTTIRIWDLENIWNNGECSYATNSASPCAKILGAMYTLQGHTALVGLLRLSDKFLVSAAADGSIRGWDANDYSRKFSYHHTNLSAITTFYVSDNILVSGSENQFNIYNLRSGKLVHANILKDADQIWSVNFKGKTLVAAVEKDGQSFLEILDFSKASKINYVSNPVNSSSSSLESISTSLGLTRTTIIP

Variants of: B1
Conditions: with hog1_yeast HOG1, P32485

Row | effect of a mutation on the interaction | Variant
1 | disrupting interaction | T173E

Variants of: B2
Conditions: with cdc4_yeast CDC4, P07834

Row | effect of a mutation on the interaction | Variant
2 | decreasing interaction | T173E
